Assay results reported in patent publication US20150307616A1 (APEXIGEN, published 2015).
Values belong to the binder of their own block, whether it stands above or below them.

Legend:
[1] = molecular target: T1, human CD40 on the cell surface (human, UniProt P25942 21-277); experiment: cell-based or functional assay
[2] = molecular target: T2, mouse CD40 (coated protein) (mouse, UniProt P27512 20-193, limits assumed); experiment: direct ELISA by the text (1 ug/ml CD40 coated, goat anti-human IgG-HRP); the axis of the sheet is labelled MFI
T2 construct: Coated at 1 µg/ml on ELISA plates
Protocol: Cross-reactivity was assessed by direct ELISA. A total of 1 μg/ml of human CD40, monkey CD40 or mouse CD40 was coated on ELISA plates followed by incubation with […] of APX005 or control IgG1. Antibodies bound to CD40 were detected using goat anti-human IgG conjugated with HRP. APX005 clearly crossreacts with monkey CD40 but not mouse CD40. (FIG. 11A)

[3] = molecular target: T3, human CD40 (human, UniProt P25942 21-193, limits assumed); experiment: method not stated
T3 construct: also called immobilized human CD40

[4] = molecular target: T4, mouse CD40 on mouse A20 cells (mouse, UniProt P27512 20-289); experiment: FACS on mouse A20 cells, goat anti-human IgG (H+L)-R-PE
T4 construct: whole, on cells; also called A20 cell line which expresses mouse CD40
Protocol: Cross-reactivity of APX005 with mouse CD40 was further determined by FACS binding to a mouse A20 cell line which expresses mouse CD40. An aliquot of 0.5×10⁶ A20 cells was added to 96 well plates and incubated with 100 μl diluted rat anti-mouse CD40 antibody conjugated with PE, APX005 or IgG1 control antibodies. After washing, 100 μl Goat-anti human IgG (H+L) conjugated with R-PE (Southern Biotech CAT#2040-09) were added at 1:200 dilution in PBS to the sample and incubated for detection of APX005 and control human IgG1. A rat anti-mouse CD40 antibody conjugated with PE was used as positive control. Samples were re-suspended with 0.5 ml PBS and analyzed by FACS.

[5] = molecular target: T1, human CD40 on the cell surface; experiment: FACS on Ramos cells, 4 h at 37 C, Alexa 488 goat anti-human IgG
Protocol: (§1) In order to assess the target mediated-internalization of APX005 for evaluating its impact on ADCC activity, Ramos cells were incubated with APX005 for 4 h at 37° C., a temperature permissive for internalization, or at 4° C. for 30 minutes, a temperature at which internalization is minimized. Cells were washed with staining buffer, followed by incubation with Alexa 488 labeled goat anti-human IgG for an additional 30 minutes at 4° C. FACS analysis was performed to examine the level of APX005 on the cell surface.

[6] = molecular target: T1, human CD40 on the cell surface; experiment: FACS on Ramos cells, 30 minutes at 4 C, Alexa 488 goat anti-human IgG
Protocol: as §1

[7] = molecular target: T1, human CD40 on the cell surface; experiment: cell-based or functional assay; remark: listed apart in the source

T1 sequence (P25942 21-277): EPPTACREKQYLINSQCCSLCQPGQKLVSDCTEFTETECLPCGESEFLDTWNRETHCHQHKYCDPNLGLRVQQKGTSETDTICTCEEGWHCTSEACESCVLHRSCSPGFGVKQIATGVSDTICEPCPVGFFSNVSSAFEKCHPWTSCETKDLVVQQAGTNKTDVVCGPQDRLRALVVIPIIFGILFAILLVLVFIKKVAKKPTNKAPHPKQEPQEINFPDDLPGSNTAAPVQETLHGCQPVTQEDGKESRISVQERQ
T2 sequence (P27512 20-193 limits assumed): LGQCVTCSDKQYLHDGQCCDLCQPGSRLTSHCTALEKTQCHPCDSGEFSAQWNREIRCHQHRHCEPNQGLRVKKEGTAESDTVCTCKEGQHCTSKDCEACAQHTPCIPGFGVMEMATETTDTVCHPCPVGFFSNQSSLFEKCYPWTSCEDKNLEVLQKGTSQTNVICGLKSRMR
T4 sequence (P27512 20-289): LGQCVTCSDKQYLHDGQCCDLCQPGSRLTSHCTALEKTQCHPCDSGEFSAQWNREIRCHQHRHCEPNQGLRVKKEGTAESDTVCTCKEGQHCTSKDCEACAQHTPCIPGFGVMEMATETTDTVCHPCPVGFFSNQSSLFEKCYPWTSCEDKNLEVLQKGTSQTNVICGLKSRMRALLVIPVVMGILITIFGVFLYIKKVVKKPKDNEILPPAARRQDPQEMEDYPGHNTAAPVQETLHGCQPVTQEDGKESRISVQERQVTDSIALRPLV
T3 sequence (P25942 21-193 limits assumed): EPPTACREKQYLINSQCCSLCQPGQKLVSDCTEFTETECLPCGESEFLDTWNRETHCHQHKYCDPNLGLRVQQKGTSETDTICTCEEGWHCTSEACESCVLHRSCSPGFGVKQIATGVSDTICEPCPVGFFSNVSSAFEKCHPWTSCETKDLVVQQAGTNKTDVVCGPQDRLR

- binding result [2]: no binding
- Kd [3]: 0.96 nM
- binding result [4]: no binding (tested: 10000 ng/ml)
- EC50 (read off the curve) [5]: ~0.05 µg/mL
- EC50 (read off the curve) [6]: ~0.05 µg/mL
B2: APX005 humanized anti-CD40 antibody (antibody, IgG1, V domains shown)
VH: QVQLVESGGGVVQPGRSLRLSCAASGFSFSSTYVCWVRQAPGKGLEWIACIYTGDGTNYSASWAKGRFTISKDSSKNTVYLQMNSLRAEDTAVYFCARPDITYGFAINFWGPGTLVTVSS
VL: DIQMTQSPSSLSASVGDRVTIKCQASQSISSRLAWYQQKPGKPPKLLIYRASTLASGVPSRFSGSGSGTDFTLTISSLQPEDVATYYCQCTGYGISWPIGGGTKVEIK
notes: also called humanized R-8

- Pro-apoptosis activity (IC50) [7]: 0.57 µg/mL
B5: cR-3 chimeric anti-CD40 antibody (antibody, V domains shown)
VH: QSLEESGGDLVKPGASLTLTCTASGFSFSDSFWIAWVRQAPGKGLEWIGCIHALSSGSTYYANWARGRFTISKTSSTTVTLQMNSLTAADTATYFCARSYAGYADYNVATGLNLWGPGTLVTVSS
VL: DVVMTQTPSSASAAVGGTVTTKCQASQSIGSYLAWYQQKPGQRPKLLIYAASNLASGVPSRFKGSRSGTEYTLTISGVQREDAATYYCLGSFTGSDTTFGGGTELEIL
- ADCC (% cytotoxicity of Ramos cell at 1 µg/ml) [7]: 30%

- Pro-apoptosis activity (IC50) [7]: 0.9 µg/mL
B7: cR-33 chimeric anti-CD40 antibody (antibody, V domains shown)
VH: QSLEESGGDLVKPGASLTLTCTASGFSFSSSYWICWVRQAPGKGLEWIACINTGSSVTTVYARWAKGRFTISKASSTTVTLQMTSLTAADTATYFCARYIIPGYNFNLWGPGTLVTVSS
VL: AYDMTQTPASVEVAVGGTVTINCQASQSISSYLYWYQQKPGQPPKLLIYDASKLASGVPSRFKGSGSGTQFTLTITGVECADAATYYCQQGYSHINVDNIFGGGTEVVVK
- ADCC (% cytotoxicity of Ramos cell at 1 µg/ml) [7]: 29%

- CD83 expression on human monocyte-derived DC (DC maturation assay) [1]: > 50%
B8: R-33 rabbit anti-CD40 antibody (antibody, V domains shown)
VH: QSLEESGGDLVKPGASLTLTCTASGFSFSSSYWICWVRQAPGKGLEWIACINTGSSVTTVYARWAKGRFTISKASSTTVTLQMTSLTAADTATYFCARYIIPGYNFNLWGPGTLVTVSS
VL: AYDMTQTPASVEVAVGGTVTINCQASQSISSYLYWYQQKPGQPPKLLIYDASKLASGVPSRFKGSGSGTQFTLTITGVECADAATYYCQQGYSHINVDNIFGGGTEVVVK

- Pro-apoptosis activity (IC50) [7]: 0.45 µg/mL
B9: cR-8 chimeric anti-CD40 antibody (antibody, V domains shown)
VH: QSLEESGGDLVKPGASLTLTCTASGFSFSSTYVCWVRQAPGKGLEWIACIYTGDGTNYSASWAKGRFTISKPSSTTVTLQMTSLTPADTATYFCARPDITYGFAINFWGPGTLVTVSS
VL: DIVMTQTPSSASEPVGGTVTIKCQASQSISSRLAWYQQKPGQPPKLLIYRASTLASGVPSRFKGSGSGTEFTLTISDLECADAATYYCQCTGYGISWPIGGGTEVVVK
- ADCC (% cytotoxicity of Ramos cell at 1 µg/ml) [7]: 33%

- CD83 expression on human monocyte-derived DC (DC maturation assay) [1]: > 50%
B12: R-24 rabbit anti-CD40 antibody (antibody, V domains shown)
VH: QSLEESGGDLVKPGASLTLTCTASGFSFSRGYYICWVRQAPGKGLEWIACIGAGSGGTYFASWAKGRFSISRTSSTTVTLQMTSLTAADTATYFCAREDAGNDDYGYARNLWGPGTLVTVSS
VL: DIVMTQTPASVSAAVGGTVTINCQASESAYTLLAWYQQKPGQPPKLLIYGASILESGVPSRFKGSGSGTDFTLTISDLECADAATYYCQSHYFGSSSGYANTFGGGTEVVVK

- Pro-apoptosis activity (IC50) [7]: 0.02 µg/mL
B14: c19-21 chimeric anti-CD40 antibody (antibody, V domains shown)
VH: QSLEESGGRLVTPGTPLTLTCTVSGFDLSSNAMNWVRQAPGKGLEWIGYITISGSAGYASWAKGRFTISKTSTTVDLKISSPTTEDTATYFCARGYNTMAIWGPGTLVTVSS
VL: AQVLTQTPSPVSAPVGGTVTINCQSSQNVLINNRLAWYQQKPGQPPKLLIYDASKLASGVPSRFKGSGSGTQFTLTISGVQCDDAATYYCQAGYSSGDGNAFGGGTEVVVK
- ADCC (% cytotoxicity of Ramos cell at 1 µg/ml) [7]: 26%

- CD83 expression on human monocyte-derived DC (DC maturation assay) [1]: > 50%
B15: R-36 rabbit anti-CD40 antibody (antibody, V domains shown)
VH: QQQLVESGGGLVKPGASLTLTCKASGFSFSSTYWICWVRQAPGKGLEWIGCINSDDSGTNVYANWAKGRFTISKASSTTVTLQMTSLTAADTATYFCARYPIPGYHFNLWGPGTLVTVSS
VL: AYDMTQTPASVEVAVGGTVTIKCQASQNIYGYLFWYQQKPGQPPNLLIAEASKLPSGVPSRFKGSGSGTEYSLTISGVECADAATYYCQQSYSHINVDNIFGGGTEVVVK

Second part, the binder before the results:

B1: R-18 rabbit anti-CD40 antibody (antibody, V domains shown)
VH: QSLEESGGDLVKPGASLTLTCTASGIDFSSYYYMCWVRQAPGKGLEWIGCIYAGSGSTYYASWAKGRFTISKTSSTTVTLQMTSLTAADTATYFCARSGYNDGSYYNLWGPGTLVTVSS
VL: DIVMTQTPSSVEAAVGGTVTIKCQASQSIYTWLAWYQQKPGQPPKLLIYKASTLASGVPSRFKGSGSGTDYTLTISDLECDDAATYYCQRYSWNGSYGVSFGGGTEVVVR
- CD83 expression on human monocyte-derived DC (DC maturation assay) [1]: > 50%

B3: 19-45 rabbit anti-CD40 antibody (antibody, V domains shown)
VH: QSVEESGGRLVTPGTPLTLNCTVSGFSLSSYDMNWVRQAPGKGLEWIGVIWNNGEIFYASWAKGRFTISKTSTTVDLKITSPSTEDTATYFCAGDADGGVVSYFHVWGPGTLVTVSS
VL: AYDMTQTPASVEVAVGGTVTIKCQASQTIYTYLAWYLQKPGQPPKLLIYEASKLASGVSSRFEGSGSGTQFTLTISGVQCDDAATYYCQQGYNSRHVDNVFGGGTEVVVK
- CD83 expression on human monocyte-derived DC (DC maturation assay) [1]: > 50%

B4: R-3 rabbit anti-CD40 antibody (antibody, V domains shown)
VH: QSLEESGGDLVKPGASLTLTCTASGFSFSDSFWIAWVRQAPGKGLEWIGCIHALSSGSTYYANWARGRFTISKTSSTTVTLQMNSLTAADTATYFCARSYAGYADYNVATGLNLWGPGTLVTVSS
VL: DVVMTQTPSSASAAVGGTVTTKCQASQSIGSYLAWYQQKPGQRPKLLIYAASNLASGVPSRFKGSRSGTEYTLTISGVQREDAATYYCLGSFTGSDTTFGGGTELEIL
- CD83 expression on human monocyte-derived DC (DC maturation assay) [1]: > 50%

B6: R-6 rabbit anti-CD40 antibody (antibody, V domains shown)
VH: GGSLTLTGTASGFSFSSSYSMCWVRQAPGKGLEWIGCIDTGRGYTYHASGAKGRFTFSKTSSTTVTLQMTSLTAADTATYFCARSSYVRYDNRNYGFNLWGPGTLVTVSS
VL: DIVMTQTPASVEAAVGGTITINCQASESISSWLSWYQQKPGQRPKLLIYYTSNLASGVPSRFKGSGAGTDFTLTISDLECADAATYYCQSNYGSSSSTYYGFGGGTEVVVK
- CD83 expression on human monocyte-derived DC (DC maturation assay) [1]: > 50%

B10: R-9 rabbit anti-CD40 antibody (antibody, V domains shown)
VH: QSLEESGGDLVKPGASLTLTCTASRFSFSSTYMCWVRQAPGKGLEWIACTYTGSSGGTYYASWAKGRFTISQTSSTTVTLQLTGLTPADTATYFCARPDVGFDFAINFWGPGTLVTVSS
VL: DIVMTQTPSSASEPVGGTVTIKCQASQSISSRLAWYQQKPGQPPKLLIYRASTLASGVSSRFKGSGSGTQFTLTISDLECADAATYYCQCTGYTISWPFGGGTEVVVK
- CD83 expression on human monocyte-derived DC (DC maturation assay) [1]: > 50%

B11: 19-59 rabbit anti-CD40 antibody (antibody, V domains shown)
VH: QSVEESGGRLVTPGTPLTLTCTVSGFSLSDYVMRWVRQAPGKGLEWIGVISSAGNTYYATWAKDRFTISKTSTTVDLRIASPTTEDTATYFCARIWRPDDPTNSDIWGPGTLVTVSS
VL: DVVMTQTPSSTSAAVGGTVTIKCQASESISSSLAWYQQKPGQPPKLLIYYASDLASGVPSRFSGSRSGTEYTLTISGVQREDAATYYCLGGYATAAYRTAFGGGTELEIL
- CD83 expression on human monocyte-derived DC (DC maturation assay) [1]: > 50%

B13: 19-21 rabbit anti-CD40 antibody (antibody, V domains shown)
VH: QSLEESGGRLVTPGTPLTLTCTVSGFDLSSNAMNWVRQAPGKGLEWIGYITISGSAGYASWAKGRFTISKTSTTVDLKISSPTTEDTATYFCARGYNTMAIWGPGTLVTVSS
VL: AQVLTQTPSPVSAPVGGTVTINCQSSQNVLINNRLAWYQQKPGQPPKLLIYDASKLASGVPSRFKGSGSGTQFTLTISGVQCDDAATYYCQAGYSSGDGNAFGGGTEVVVK
- CD83 expression on human monocyte-derived DC (DC maturation assay) [1]: > 50%

B16: R-16 rabbit anti-CD40 antibody (antibody, V domains shown)
VH: QSLEESGGGLVKPGGTLTLTCKASGFSLNYYWPCWVRQAPGKGLEWVACLNGGDSDTTVYARWAKGRFTISKASSTTVTLQMTSLTAADTATYFCARYIIPGYHFNLWGPGTLVTVSS
VL: AYDMTQTPASVSAAVGDTVTIKCQASQSISSYLYWYQQKPGQPPKLLIYQASKLASGVPSRFKGSGSGTEYTLTISDLECADVATYYCQQGYSHINVDNIFGGGFQVVVK
- CD83 expression on human monocyte-derived DC (DC maturation assay) [1]: > 50%
